{
  "source": "paper PMC4104443",
  "test_system": "O=NO",
  "assay": "purified protein",
  "details": "50 mM potassium phosphate pH 7.0, 4 °C, anaerobic, nitrite up to 50 mM",
  "data": [
    {"substance": "AxNiR (AxCuNiR) (Achromobacter xylosoxidans; F330C)", "values": [
      {"measurement": "Km", "result": "1200 ± 100", "unit": "µM"},
      {"measurement": "kcat", "result": 310, "unit": "s⁻¹"},
      {"measurement": "kcat/Km", "result": 260000, "unit": "M⁻¹ s⁻¹"}
    ]}
  ]
}
